Experiments:
[1] = target: NCS-Orf16 (S. carzinostaticus); test: SEC
[2] = target: SgcJ (Streptomyces globisporus); test: SEC

Row | stoichiometry N [1] | stoichiometry N [2] | Substance
1 | 2 |  | NCS-Orf16 (natural protein)
2 |  | 2 | SgcJ (natural protein)

Source: PMC5083130
